T1: TNFR1 (Homo sapiens, UniProt P19438)
T1 chain: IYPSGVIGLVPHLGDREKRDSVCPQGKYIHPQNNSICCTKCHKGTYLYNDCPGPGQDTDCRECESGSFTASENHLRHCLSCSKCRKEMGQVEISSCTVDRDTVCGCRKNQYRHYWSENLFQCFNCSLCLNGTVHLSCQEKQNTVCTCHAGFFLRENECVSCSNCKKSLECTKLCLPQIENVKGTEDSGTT


Biological target: T1, TNFR1
Experiment: yeast display SC50

| apparent Kd (screen) [nM] | Binder |
| --- | --- |
| 1.27 | D53A (designed binder) SMEEEVEKAAKEYEKKKKEAIEKHLEKLKAKDKEAAERFLKELEEAAKEYAKAEAKTMSEEEAKRRAKKYKEKVLLSELSEEEQKEIKEAEEKLVRTILKYVEEAAK |
| 3 | K68C (designed binder) SMEEEVEKAAKEYEKKKKEAIEKHLEKLKAKDKEAAERFLKELEEAAKEYAKDEAKTMSEEEAKRRACKYKEKVLLSELSEEEQKEIKEAEEKLVRTILKYVEEAAK |
| 0.0729 | T57F (designed binder) SMEEEVEKAAKEYEKKKKEAIEKHLEKLKAKDKEAAERFLKELEEAAKEYAKDEAKFMSEEEAKRRAKKYKEKVLLSELSEEEQKEIKEAEEKLVRTILKYVEEAAK |
| 1.4 | R65V (designed binder) SMEEEVEKAAKEYEKKKKEAIEKHLEKLKAKDKEAAERFLKELEEAAKEYAKDEAKTMSEEEAKVRAKKYKEKVLLSELSEEEQKEIKEAEEKLVRTILKYVEEAAK |
| 1.54 | A67S (designed binder) SMEEEVEKAAKEYEKKKKEAIEKHLEKLKAKDKEAAERFLKELEEAAKEYAKDEAKTMSEEEAKRRSKKYKEKVLLSELSEEEQKEIKEAEEKLVRTILKYVEEAAK |
| 2.48 | E78A (designed binder) SMEEEVEKAAKEYEKKKKEAIEKHLEKLKAKDKEAAERFLKELEEAAKEYAKDEAKTMSEEEAKRRAKKYKEKVLLSALSEEEQKEIKEAEEKLVRTILKYVEEAAK |
| 13.8 | T57D (designed binder) SMEEEVEKAAKEYEKKKKEAIEKHLEKLKAKDKEAAERFLKELEEAAKEYAKDEAKDMSEEEAKRRAKKYKEKVLLSELSEEEQKEIKEAEEKLVRTILKYVEEAAK |
| 0.405 | E54F (designed binder) SMEEEVEKAAKEYEKKKKEAIEKHLEKLKAKDKEAAERFLKELEEAAKEYAKDFAKTMSEEEAKRRAKKYKEKVLLSELSEEEQKEIKEAEEKLVRTILKYVEEAAK |
| 13.8 | L79H (designed binder) SMEEEVEKAAKEYEKKKKEAIEKHLEKLKAKDKEAAERFLKELEEAAKEYAKDEAKTMSEEEAKRRAKKYKEKVLLSEHSEEEQKEIKEAEEKLVRTILKYVEEAAK |
| 1.4 | R96Q (designed binder) SMEEEVEKAAKEYEKKKKEAIEKHLEKLKAKDKEAAERFLKELEEAAKEYAKDEAKTMSEEEAKRRAKKYKEKVLLSELSEEEQKEIKEAEEKLVQTILKYVEEAAK |
| 8.56 | R66W (designed binder) SMEEEVEKAAKEYEKKKKEAIEKHLEKLKAKDKEAAERFLKELEEAAKEYAKDEAKTMSEEEAKRWAKKYKEKVLLSELSEEEQKEIKEAEEKLVRTILKYVEEAAK |
| 7.78 | M58H (designed binder) SMEEEVEKAAKEYEKKKKEAIEKHLEKLKAKDKEAAERFLKELEEAAKEYAKDEAKTHSEEEAKRRAKKYKEKVLLSELSEEEQKEIKEAEEKLVRTILKYVEEAAK |
| 0.593 | K64E (designed binder) SMEEEVEKAAKEYEKKKKEAIEKHLEKLKAKDKEAAERFLKELEEAAKEYAKDEAKTMSEEEAERRAKKYKEKVLLSELSEEEQKEIKEAEEKLVRTILKYVEEAAK |
| 2.73 | L75E (designed binder) SMEEEVEKAAKEYEKKKKEAIEKHLEKLKAKDKEAAERFLKELEEAAKEYAKDEAKTMSEEEAKRRAKKYKEKVELSELSEEEQKEIKEAEEKLVRTILKYVEEAAK |

The remaining lines, values behind:

| Binder | apparent Kd (screen) [nM] |
| --- | --- |
| E44C (designed binder) SMEEEVEKAAKEYEKKKKEAIEKHLEKLKAKDKEAAERFLKELCEAAKEYAKDEAKTMSEEEAKRRAKKYKEKVLLSELSEEEQKEIKEAEEKLVRTILKYVEEAAK | 0.446 |
| K16D (designed binder) SMEEEVEKAAKEYEKDKKEAIEKHLEKLKAKDKEAAERFLKELEEAAKEYAKDEAKTMSEEEAKRRAKKYKEKVLLSELSEEEQKEIKEAEEKLVRTILKYVEEAAK | 0.539 |
| E14I (designed binder) SMEEEVEKAAKEYIKKKKEAIEKHLEKLKAKDKEAAERFLKELEEAAKEYAKDEAKTMSEEEAKRRAKKYKEKVLLSELSEEEQKEIKEAEEKLVRTILKYVEEAAK | 5.84 |
| K23D (designed binder) SMEEEVEKAAKEYEKKKKEAIEDHLEKLKAKDKEAAERFLKELEEAAKEYAKDEAKTMSEEEAKRRAKKYKEKVLLSELSEEEQKEIKEAEEKLVRTILKYVEEAAK | 0.49 |
| K29I (designed binder) SMEEEVEKAAKEYEKKKKEAIEKHLEKLIAKDKEAAERFLKELEEAAKEYAKDEAKTMSEEEAKRRAKKYKEKVLLSELSEEEQKEIKEAEEKLVRTILKYVEEAAK | 1.54 |
| K15Q (designed binder) SMEEEVEKAAKEYEQKKKEAIEKHLEKLKAKDKEAAERFLKELEEAAKEYAKDEAKTMSEEEAKRRAKKYKEKVLLSELSEEEQKEIKEAEEKLVRTILKYVEEAAK | 0.956 |
| A9F (designed binder) SMEEEVEKFAKEYEKKKKEAIEKHLEKLKAKDKEAAERFLKELEEAAKEYAKDEAKTMSEEEAKRRAKKYKEKVLLSELSEEEQKEIKEAEEKLVRTILKYVEEAAK | 0.718 |
| K17Y (designed binder) SMEEEVEKAAKEYEKKYKEAIEKHLEKLKAKDKEAAERFLKELEEAAKEYAKDEAKTMSEEEAKRRAKKYKEKVLLSELSEEEQKEIKEAEEKLVRTILKYVEEAAK | 0.446 |
| E42W (designed binder) SMEEEVEKAAKEYEKKKKEAIEKHLEKLKAKDKEAAERFLKWLEEAAKEYAKDEAKTMSEEEAKRRAKKYKEKVLLSELSEEEQKEIKEAEEKLVRTILKYVEEAAK | 0.49 |
| K16F (designed binder) SMEEEVEKAAKEYEKFKKEAIEKHLEKLKAKDKEAAERFLKELEEAAKEYAKDEAKTMSEEEAKRRAKKYKEKVLLSELSEEEQKEIKEAEEKLVRTILKYVEEAAK | 0.446 |
| L43C (designed binder) SMEEEVEKAAKEYEKKKKEAIEKHLEKLKAKDKEAAERFLKECEEAAKEYAKDEAKTMSEEEAKRRAKKYKEKVLLSELSEEEQKEIKEAEEKLVRTILKYVEEAAK | 0.49 |
| E4Y (designed binder) SMEYEVEKAAKEYEKKKKEAIEKHLEKLKAKDKEAAERFLKELEEAAKEYAKDEAKTMSEEEAKRRAKKYKEKVLLSELSEEEQKEIKEAEEKLVRTILKYVEEAAK | 1.16 |
